Experimental data as given in US20030147883A1 (US Dept. of Health and Human Services, published 2003).

Target: T1, chemokine receptor CCR5 (human, UniProt P51681 1-352)
T1 construct: whole, on cells
Assay: ^125I-MIP-1β binding to human monocytes, displacement by unlabeled MIP-1β
Protocol: After incubation, the cells were washed with DPBS and centrifuged through a 10% sucrose/DPBS cushion. The tips of tubes containing cell pellets were cut and the cell-associated radioactivity was determined in a gamma counter. The results were presented as counts per minute (cpm) on 2×10⁶ monocyte and were representative of at least three experiments performed.

T1 sequence (P51681 whole entry): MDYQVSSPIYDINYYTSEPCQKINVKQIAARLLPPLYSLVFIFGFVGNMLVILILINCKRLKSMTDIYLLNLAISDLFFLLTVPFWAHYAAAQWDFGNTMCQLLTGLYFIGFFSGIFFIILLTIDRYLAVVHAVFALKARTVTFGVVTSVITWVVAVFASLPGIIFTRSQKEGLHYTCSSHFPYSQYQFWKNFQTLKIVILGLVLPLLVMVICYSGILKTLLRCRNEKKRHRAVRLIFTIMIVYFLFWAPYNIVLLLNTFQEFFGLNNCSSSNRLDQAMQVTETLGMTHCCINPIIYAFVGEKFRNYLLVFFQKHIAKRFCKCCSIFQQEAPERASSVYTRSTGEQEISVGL

B1: MIP-1β (ligand, human, UniProt P13236 24-92, looked up)
chain: APMGSDPPTACCFSYTARKLPRNFVVDYYETSSLCSQPAVVFQTKRSKQVCADPSESWVQEYVYDLELN
notes: also called MIP-1beta
binding result: binds
